{"source": "patent US9376684", "key": {"[1]": {"target": "TFPI1-183-CD4 (UniProt P10646)", "experiment": "flow cytometry, DAP.3 transfectants incubated with increasing FXa"}, "[2]": {"target": "TFPI1-276-CD4 (UniProt P10646)", "experiment": "flow cytometry, DAP.3 transfectants incubated with increasing FXa"}, "[3]": {"tested_on": "native full-length hirudin (Biopharm)"}, "[4]": {"tested_on": "synthetic C-terminal hirudin dodecapeptide analog comprising hirudin residues 53-64, with sulfato-Tyr64 (American Diagnostica)"}, "[5]": {"target": "TFPI1-183-CD4 (UniProt P10646)"}, "[6]": {"target": "TFPI1-276-CD4 (UniProt P10646)"}}, "data": [{"substance": "FXa (from UniProt P00742 41-488) (enzyme)", "values": [{"measurement": "FXa concentration at which significant binding was detected", "setting": "[1]", "result": 0.02, "unit": "nM"}, {"measurement": "FXa concentration at which significant binding was detected", "setting": "[2]", "result": 0.02, "unit": "nM"}]}, {"substance": "thrombin", "values": [{"measurement": "thrombin-dependent catalytic activity (cleavage of chromogenic substrate S-2238)", "setting": "[3]", "result": "no chromogenic conversion was observed with thrombin incubated with PPACK-HCl or hirudin as compared to thrombin incubated without inhibitor"}, {"measurement": "thrombin-dependent catalytic activity (cleavage of chromogenic substrate S-2238)", "setting": "[4]", "result": "the dodecapeptide did not influence thrombin-dependent catalytic activity as measured by cleavage of S-2238"}]}, {"substance": "FXa", "values": [{"measurement": "proteolytic activity of FXa (chromogenic substrate S-2765; time required to reach OD405=0.1)", "setting": "[5]", "result": "FXa activity was inhibited by expressed TFPI-CD4 in a dose dependent manner with the greatest inhibition noted when low concentrations of FXa (0.16 nM) were added"}, {"measurement": "proteolytic activity of FXa (chromogenic substrate S-2765; time required to reach OD405=0.1)", "setting": "[6]", "result": "FXa activity was inhibited by expressed TFPI-CD4 in a dose dependent manner with the greatest inhibition noted when low concentrations of FXa (0.16 nM) were added"}]}]}
